Reference: patent publication US20250326824A1
Several values for one entry are separate records, joined by “and”; a condition that tells them apart may be missing. Identical values can stand only once. Blank lines part the entries; values can stand above or below the molecule they belong to.

How the values were obtained:
Test in all cases: cell-based or functional assay
[1] = biological target: mHTTex1-72Q-eGFP (human) (UniProt P42858)
[2] = biological target: human α-synuclein protein (human)
[3] = biological target: human α-synuclein-GFP (human)

UniProt P42858, sequence (P42858 other isoform, or with tags, fused parts or gaps): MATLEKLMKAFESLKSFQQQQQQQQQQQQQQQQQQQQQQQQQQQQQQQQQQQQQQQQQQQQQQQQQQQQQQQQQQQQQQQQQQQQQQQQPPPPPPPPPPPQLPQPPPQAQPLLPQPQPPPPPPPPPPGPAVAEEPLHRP

Molecule: scFv-C4-hPEST-E444A
soluble mHTTex1-72Q-GFP by western blot (EM48/GAPDH, normalized to EV-CON) [1]: 50 to 75 % of control

Molecule: scFv-C4-hPEST-S440A
soluble mHTTex1-72Q-GFP by western blot (EM48/GAPDH, normalized to EV-CON) [1]: 25 % of control and 0 % of control

Molecule: scFv-C4-hPEST-T436A
soluble mHTTex1-72Q-GFP by western blot (EM48/GAPDH, normalized to EV-CON) (% relative to control) [1]: 75 to 100

B3: SS-PEN-N77D-PEST (VHH)
VHH: MEFGLSWLFLVAILKGVQGRQIKIWFQNRRMKWKKSRQVQLVESGGGGLVQPGGSLRLSCVTPGGIFSDYAMGWYRQAPGKQRELVADITVSDTTRYSDPVKGRFTISRDNAKDMVYLQMNSLKPEDAAIYTCNAQKWEDRYGSSERYDYWGQGTQVTVSSAHHSEDPAAAYPYDVPDYNPDFPPEVEEQDASTLPVSCAWESGMKRHRAACASASINV
reduction of endogenous synuclein by western blot, 3×SNCA cortical cultures given conditioned media [2]: 40% | reduction of endogenous α-synuclein by western blot relative to SS-N77K-hP control, 3×SNCA cortical cultures [2]: 40% | reduction of α-Syn˜eGFP by western blot, recipient ST14A cells given conditioned media [3]: 20%

Continued, values first:

soluble mHTTex1-72Q-GFP by western blot (EM48/GAPDH, normalized to EV-CON) (% relative to control) [1]: 75 to 100
Molecule: scFv-C4-hPEST

soluble mHTTex1-72Q-GFP by western blot (EM48/GAPDH, normalized to EV-CON) [1]: 50 to 75 % of control
Molecule: scFv-C4-hPEST-E428A-E430A-E431A

reduction of endogenous α-synuclein by western blot relative to SS-N77K-hP control, 3×SNCA cortical cultures [2]: 40%
B1: SS-435b-N77D-hP (VHH)
VHH: VQLVESGGGGLVQPGGSLRLSCVTPGGIFSDYAMGWYRQAPGKQRELVADITVSDTTRYSDPVKGRFTISRDNAKDMVYLQMNSLKPEDAAIYTCNAQKWEDRYGSSERYDYWGQGTQVTVSS

reduction of endogenous synuclein by western blot, 3×SNCA cortical cultures given conditioned media [2]: 30%
B2: SS-PEN-DB1-PEST (VHH)
VHH: MEFGLSWLFLVAILKGVQGRQIKIWFQNRRMKWKKSRAEVQLQASGGGFVQPGGSLRLSCAASGFTSWEDTMGWFRQAPGKEREFVSAISFDANDLSDTSVYYADSVKGRFTISRDNSKNTVYLQMNSLRAEDTATYYCAVASFEILLYGESLHIYWGQGTQVTVSSAAAYPYDVPDYANPDFPPEVEEQDASTLPVSCAWESGMKRHRAACASASINV
